Test system: human iRhom1
Assay: Peptide binding ELISA, binding specificity (Example 10), iRhom1 peptides
Conditions: antibody 3 μg/ml PBS; peptides coated at 10 μg/ml; normalized to IgM isotype control
Description: Another series of peptide binding ELISA experiments was conducted to address the specificity of the purified antibody 4H8-E3 of the invention, i.e. to question whether this antibody specifically recognizes peptides, in particular peptide 3, resembling the extracellular juxtamembrane region adjacent to the TMD1 of human iRhom2, or whether the antibody 4H8-E3 of the invention also binds to peptides reflecting the homologous region of the closely related family member human iRhom1.
In brief, on day 1, Nunc black MaxiSorp® 96-well plates (Thermo Fisher Scientific, USA) were coated overnight with 100 μl per well of single biotinylated peptides 1 to 4, Mix A consisting of peptides 1 to 4, single biotinylated peptides 1b to 4b, and Mix D consisting of peptides 1b to 4b at 10 μg/m1 PBS each (thus, the final concentration of each peptide in both mixes was 2.5 μg/m1) at 4° C. On day 2, peptide solutions were removed and MaxiSorp® plates were blocked with 300 μl per well of Pierce protein-free (TBS) blocking buffer (Thermo Fisher Scientific, USA) at room temperature for 1.5 hours. […] Using an infinite M1000 PRO (Tecan Group, Switzerland) microplate reader, the fluorescence of each well was collected at an excitation wavelength of 435 nm and an emission wavelength of 555 nm.

B1: 4H8-E3: Mouse IgM monoclonal antibody against the human iRhom2 juxtamembrane domain adjacent to TMD1; HC VD SEQ ID NO 33, LC VD SEQ ID NO 40 (antibody, V domains shown)
VH: EVQLQQSGPELVKPGASVKISCKASGYTFTDYYMNWVKQSHGKSLEWIGDINPNNGGTSYNQKFKGKATLTVDKSSNTAYMEFRSLTSEDSAVYYCARRGYYGVDYWGQGTTLTVSS
VL: NIVMTQSPKSMSMSVGERVTLNCKASENVGTYVSWYQQKPEQSPKLLIFGASNRYTGVPDRFIGSGFATDFTLTISSVQAEDLADYHCGQSYSYPYTFGGGTKLEIK
modifications: IgM constant regions; antibody sequence
binding to Mix D or individually coated peptides 1b, 2b, 3b and 4b (homologous sequences of human iRhom1): does not bind at all

Source: patent US20220204610A1, “PROTEIN BINDERS FOR IRHOM2” (NEW YORK SOCIETY FOR THE RELIEF OF THE RUPTURED AND …, priority 2019, published 2022)
